Source: the supplement of paper PMC10567573
± gives the standard deviation.

Assay: protein stability index of a GFP-peptide fusion (GPS, HEK-293T) (PSI 1-6); higher = more stable
Settings: c terminus: a fixed tail appended
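Note: 24-mer peptide tiles fused after GFP, lentivirally expressed, FACS-sorted into six equal bins by GFP/DsRed ratio, decoded by Illumina sequencing, PSI is the read-weighted mean bin number.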

Row | Sequence | protein stability index (treatment: DMSO) | protein stability index (treatment: MLN4924 1 uM, 8 h)
1 | ILSLEGGYNLRALAEGVSASLHTL [HDAC6] | 2.15 ± 0.79 | 2.12 ± 0.39
2 | MAPLLFNGCRSGEIFAIDLRCGNQ [DCAF4] | 2.52 ± 0.29 | 2.3 ± 0.56
3 | FRDATSAPLRKLSVDLIKTYKHIN [DYRK1B] | 3.36 ± 0.17 | 3.39 ± 0.27
4 | FLPGYVGGIQEGAVTPAGVVNKYQ [DHCR7] | 3.42 ± 0.21 | 3.45 ± 0.24
5 | KQLLNSAVIAQQRRKPDPPKDENE [DLC1] | 5.35 ± 0.28 | 5.41 ± 0.12
6 | WEALNMMGLYDGMEHLIYGEPRKL [MAGEA10] | 2.22 ± 0.59 | 2.45 ± 0.34
7 | PLLLLCNIKPRRYLTVVFEHDAWF [SLC29A1] | 3.09 ± 0.71 | 3.06 ± 0.52
8 | CATVGNRGFVFGGRYRDARMNDLH [KLHDC2] | 2.19 ± 0.36 | 2.05 ± 0.19
9 | QAIYVIDFFWNETWYLKTIDICHD [DHCR7] | 3.14 ± 0.37 | 3.25 ± 0.4
10 | GGTDPHGYHQVPGSAAPGSPLAAD [FOXJ1] | 5.11 ± 0.099 | 5.234 ± 0.051
11 | RHIHHLGNQLQLNQHCLDTAFNFF [BRF1] | 2.29 ± 0.23 | 2.3 ± 0.16
12 | ALSPSATAKRINRTSLSSGATVRS [CDC14A] | 4.1 ± 0.11 | 4.16 ± 0.11
13 | VTQMNHIPMHIDHDRNMDWVSTQL [FADS1] | 3.14 ± 0.45 | 3.02 ± 0.21
14 | QRRSMVSPNFGFMGQLLQYESEIL [DUSP5] | 2.5 ± 0.29 | 2.45 ± 0.38
15 | IWFIVPISCVICNDIMAYMFGFFF [CDS2] | 3.19 ± 0.25 | 3.11 ± 0.61
16 | ELRLYKQQVKKLEKALKKNVKLQE [CEP70] | 2.8 ± 0.59 | 3.08 ± 0.25
17 | GSRISVSRSTSFRGGMGSGGLATG [KRT18] | 3.65 ± 0.19 | 4.04 ± 0.69
18 | PPAEEAEQPGALAREFLAAMEPEP [FKBP8] | 5.49 ± 0.45 | 5.57 ± 0.072
19 | MHYQMSVTLKYEIKKLIYVHLVIW [JAGN1] | 3.1 ± 0.32 | 3.15 ± 0.8
20 | GQCGENLAWASYDQTGKEVADRWY [GLIPR2] | 2.68 ± 0.31 | 3.13 ± 0.26
21 | ESLLAPLNVELDPEIQKVRAQERE [KRT71] | 5.54 ± 0.44 | 5.48 ± 0.2
22 | PADALQYLLQFARKPVEAESVEGV [INTS4] | 2.9 ± 0.29 | 2.98 ± 0.41
23 | LKAKLQMTEAALALSEQKAQDLGE [LRRC45] | 4.51 ± 0.36 | 4.57 ± 0.28

Row | Sequence | protein stability index (treatment: DMSO) | protein stability index (treatment: MLN4924 1 uM, 8 h)
24 | HGHLILHSMHKYQPRIHLVRAAQL [TBX6] | 2.1 ± 0.29 | 2.07 ± 0.27
25 | YLGLPRLEFYRYYQQLKLEGPGEQ [SLC29A1] | 2.54 ± 0.39 | 2.58 ± 0.38
26 | YDPDYIQCPYCQRRFNENAADRHI [ZC2HC1A] | 3.84 ± 0.24 | 4.16 ± 0.34
27 | KLTDKHETVVSYLPLSHIAAQMMD [ACSBG2] | 2.66 ± 0.4 | 2.98 ± 0.43
28 | LAFRSGSDNLLVILKRKWWKYILL [SLC35F2] | 2.58 ± 0.47 | 1.98 ± 0.54
29 | AAGVAAAFGAPIGGTLFSLEEGSS [CLCN6] | 3.94 ± 0.09 | 3.97 ± 0.17
30 | ETPEWLDSDSCQKCDQPFFWNFKQ [WDFY2] | 2.94 ± 0.29 | 3.19 ± 0.11
31 | GGPPAGPGGVYAGPEPPPVYTNLS [JUNB] | 4.15 ± 0.12 | 4.56 ± 0.099
32 | WNILKTIALGQMLSLCICGTAITS [SLC35F2] | 3.03 ± 0.37 | 3.03 ± 0.71
33 | IFNVAIPRFHMACPTFRVSIARLE [FBXO3] | 2.19 ± 0.57 | 2.2 ± 0.47
34 | PSKVEVTEKTTTVLSESSGPSNTS [C2CD2L] | 5.43 ± 0.095 | 5.44 ± 0.23
35 | KEGRPGIPGLPGLRGLPGERGTPG [SCARA5] | 4.21 ± 0.41 | 4.43 ± 0.24
36 | DSDSEKQQQIHHIKNLYAFNLFCQ [VPS39] | 2.58 ± 0.29 | 2.71 ± 0.35
37 | EQLIEAINNGDFEAYTKICDPGLT [CAMK2D] | 4.06 ± 0.34 | 4.1 ± 0.23
38 | EVLEWYTAKDFIVGKSLTILGRTF [EFHC1] | 3.13 ± 0.62 | 2.62 ± 0.61
39 | SASHYKLQVIKALKSSGLCESLTY [M1AP] | 2.03 ± 0.41 | 2.25 ± 0.59
40 | RGAPPPPPSRAPTAAPPPPPPSRP [WASL] | 5.11 ± 0.19 | 5.17 ± 0.2
41 | EPGRLGSSSPASVTTEQLGAKMTE [PXN] | 5.2 ± 0.46 | 5.23 ± 0.24
42 | PEPLFLGEEDFSLSATIGSILREL [SERTAD3] | 2.6 ± 0.12 | 2.57 ± 0.31
43 | VQRIMVANIEEVLQRGEALSALDS [SEC22B] | 2.85 ± 0.17 | 3.05 ± 0.39
44 | FLADEEFDVVVCDQVSACIPVFRL [ALG2] | 2.3 ± 0.43 | 2.34 ± 0.47
45 | IRSMDPSALASDRFNLILADTNSD [DCAF4] | 4 ± 0.14 | 3.85 ± 0.11
46 | AQEDSLNKLALQYGCKVADIKKVN [LYSMD4] | 3.41 ± 0.14 | 3.71 ± 0.15

Row | Sequence | protein stability index (treatment: DMSO) | protein stability index (treatment: MLN4924 1 uM, 8 h)
47 | EKSVTKDAEGLAARDVQKIIGDYF [INTS4] | 2.85 ± 0.4 | 3.51 ± 0.12
48 | LNDIFHLLKSHTNVLSVNLPDNFT [TPH1] | 2.35 ± 0.32 | 2.05 ± 0.41
49 | AGGAGRGEDEENREHRVRRIHVRR [KCTD13] | 5.19 ± 0.16 | 5.34 ± 0.28
50 | CPVVRNGSVAVVEAECEKSSATTY [SLC6A17] | 4.64 ± 0.44 | 4.82 ± 0.17
51 | NLNAATDDPENKKTSSSSKAGFTA [CDC14A] | 5.17 ± 0.16 | 5.02 ± 0.062
52 | GDVPPSMSGSCAVCVDRVLYLFGG [KLHDC2] | 2.74 ± 0.79 | 2.47 ± 0.55
53 | AKNQSDEAKEAKGSGYEKLGPSRD [RTP4] | 5.47 ± 0.16 | 5.34 ± 0.26
54 | RDNSPFDGPGGNLAHAFQPGPGIG [MMP1] | 4.05 ± 0.39 | 4.03 ± 0.17
55 | SDDLERTIEERVNILFDFVKKKKE [EIF5] | 3.97 ± 0.19 | 4.2 ± 0.32
56 | KGELAPELGEEPQPRDEEEAELEL [POLD4] | 5.44 ± 0.23 | 5.69 ± 0.13
57 | EDVDTSQVLYEWEQGFSQSFTQEQ [CTNNB1] | 5.03 ± 0.23 | 5.07 ± 0.21
58 | LEENDETRFILSKVPSEAPSPMPT [SLC6A17] | 4.8 ± 0.15 | 4.84 ± 0.17
59 | DRSRTVSASSTGDLPKAKTRAADL [SRPK2] | 4.94 ± 0.11 | 4.68 ± 0.24
60 | KQNKQVLGYCLLLMLAGMGLHYIA [DNAJC4] | 2.23 ± 0.31 | 2.46 ± 0.37
61 | WDLSEAWMQANYDPLSDSDSMTSQ [ELOA2] | 4.34 ± 0.33 | 4.45 ± 0.21
62 | MSRVHGMHPKETTRQLSLAVKDGL [ZMYND11] | 3.83 ± 0.22 | 3.89 ± 0.4
63 | GGGTPSLASPHTVAAVLEAVAQTA [RSAD1] | 3.46 ± 0.52 | 3.54 ± 0.3
64 | KENKDVIQKNKLKLTREQEELEEA [MNAT1] | 5.49 ± 0.29 | 5.37 ± 0.31
65 | SWCLKRYDLEYWAFHDGQRSRLRP [TRIM14] | 2.18 ± 0.25 | 2.33 ± 0.13
66 | FLSGMEAAPRTLAAHPPLPLLPPA [TBX6] | 2.95 ± 0.41 | 3.15 ± 0.26
67 | QEVVELPVTERQIEREHLIQLRRW [TBC1D10A] | 4.05 ± 0.25 | 4.22 ± 0.2
68 | EAMAEKNRRDVEAWFFSKTEELNK [KRT15] | 4.15 ± 0.23 | 4.21 ± 0.25
69 | VGPWLGQLQELLHHCDDHLSLYQL [RSAD1] | 2.25 ± 0.45 | 2.6 ± 0.55

Row | Sequence | protein stability index (treatment: DMSO) | protein stability index (treatment: MLN4924 1 uM, 8 h)
70 | QKISLLHSCTCVLYTPSNEHFGIV [ALG2] | 2.55 ± 0.84 | 2.61 ± 0.8
71 | GASTFKEEPQTVPEARSRDATPPV [JUNB] | 5.34 ± 0.19 | 5.32 ± 0.15
72 | FQEAAGPREALSRLQELCHGWLRP [ZNF263] | 2.66 ± 0.4 | 2.67 ± 0.35
73 | WGGAPKEGSIWRGAQMEKEWARAL [ZSWIM9] | 2.8 ± 0.28 | 2.75 ± 0.25
74 | TNRVKECLAKGTFSDVTFILDDGT [RHOBTB2] | 3.52 ± 0.16 | 3.63 ± 0.18
75 | EEYCHKHYDRNKDGNKDVYLSLLR [VPS39] | 3.23 ± 0.35 | 3.19 ± 0.27
76 | QMVSAIVRTMQNTNDVETARCTAG [CTNNB1] | 2.87 ± 0.12 | 2.93 ± 0.3
77 | NTVLRFLDLKGNNLRAAGAEALGK [LRRC45] | 3.31 ± 0.27 | 3.28 ± 0.25
78 | LPPPDPNPPRAEFNYSVGFKDLNE [APBB1IP] | 4.42 ± 0.23 | 4.36 ± 0.075
79 | QASCDEAHKMKFSDLFSLAEEYED [INTS3] | 4.61 ± 0.23 | 4.77 ± 0.27
80 | ISHRSTVASCMHRQETVDCLKKFN [CAMK2A] | 3.23 ± 0.077 | 3.14 ± 0.11
81 | SSVICNDITAYLFGFFFGRTPLIK [CDS1] | 2.13 ± 1.2 | 2.02 ± 0.082
82 | QELLERGLLQLDHRGLRCSWEGLA [RSAD1] | 2.31 ± 0.2 | 2.6 ± 0.23
83 | YRHFLKSPNFDGWFKTRRKEMTQK [DENND6A] | 2.83 ± 0.37 | 3.24 ± 0.12
84 | EEKQRELARKGSLKNGSMGSPVNQ [FAM219A] | 5.33 ± 0.097 | 5.35 ± 0.16
85 | MAAGTSSYWEDLRKQARQLENELD [GOSR1] | 4.11 ± 0.15 | 3.99 ± 0.25
86 | ITTKTADGKCAYRASYSDGKLKAP [MLH1] | 3.78 ± 0.2 | 3.67 ± 0.12
87 | MEGKPMRRCTNIRPGETGMDVTSR [KLHL20] | 4.34 ± 0.085 | 4.41 ± 0.19
88 | VVAGDTVSTGSTDNSPTSNSLEGG [ADAMTSL2] | 5.39 ± 0.4 | 5.48 ± 0.15
89 | AMAERNRRDAEEWFHAKSAELNKE [KRT13] | 5.03 ± 0.27 | 5.01 ± 0.29
